In article PMC2080633, “Dimerization of inositol monophosphatase Mycobacterium tuberculosis SuhB is not constitutive, but induced by binding of the activator Mg^2+” (BMC Structural Biology, 2007):

Target: the molecule itself
Experiment: AUC; sedimentation velocity, 1.0 mg.ml^-1 SuhB, no Mg^2+; 20 mM Tris-HCl pH 7.9, 50 mM NaCl, 40,000 rpm, 4°C; monomer to dimer

B1: Mycobacterium tuberculosis SuhB (Rv2701c), inositol monophosphatase (enzyme)
chain: MTRPDNEPARLRSVAENLAAEAAAFVRGRRAEVFGISRAGDGDGAVRAKSSPTDPVTVVDTDTERLLRDRLAQLRPGDPILGEEGGGPADVTATPSDRVTWVLDPIDGTVNFVYGIPAYAVSIGAQVGGITVAGAVADVAARTVYSAATGLGAHLTDERGRHVLRCTGVDELSMALLGTGFGYSVRCREKQAELLAHVVPLVRDVRRIGSAALDLCMVAAGRLDAYYEHGVQVWDCAAGALIAAEAGARVLLSTPRAGGAGLVVVAAAPGIADELLAALQRFNGLEPIPD
notes: Inositol monophosphatase SuhB (Rv2701c) of Mycobacterium tuberculosis; the crystal model covers residues 5-34, 54-85, 98-253, 260-286; also called IMPase
  stoichiometry N: 2
